According to US20200199177:

Assays:
AcDEVD-pNA = test system: T1, AcDEVD-pNA
T1 sequence: DEVD

AcIEPD-pNA = test system: T2, AcIEPD-pNA
T2 sequence: IEPD

(AcIEPD)K-pNA = test system: T3, (AcIEPD)K-pNA
T3 sequence: IEPD

(AcDEVD)K-pNA = test system: T4, (AcDEVD)K-pNA
T4 sequence: DEVD

(AcFG)K-pNA [1] = test system: T5, (AcFG)K-pNA
T5 sequence: FGK

(AcAAF)K-pNA = test system: T6, (AcAAF)K-pNA
T6 sequence: AAFK

(AcDVED)K-pNA = test system: T7, (AcDVED)K-pNA
T7 sequence: DVED

CAAK(F)-diamino-pNA = test system: T8, CAAK(F)-diamino-pNA
T8 sequence: CAAK

(AcFG)K-pNA [2] = target: T9, (AcFG)K-pNA (not fully specified)
T9 chain: FGK

Caspase 8
caspase 8 activity on single enzyme substrate (absorbance, pNA release) (AcDEVD-pNA): cleaved as expected | caspase 8 activity on single enzyme substrate (absorbance, pNA release) (AcIEPD-pNA): cleaved as expected | absorbance increase at 405 nm (pNA release) with caspase 8 and trypsin ((AcIEPD)K-pNA): little to no absorbance increase in the presence of caspase 8 and trypsin | absorbance increase at 405 nm, 500 uM substrate with caspase 8 for 24 hours before adding trypsin ((AcDEVD)K-pNA): did not result in a significant absorbance increase

Trypsin
pNA release (absorbance at 405 nm) with trypsin only ((AcFG)K-pNA [1]): no absorbance increase was observed when the substrate was incubated with each enzyme separately | absorbance increase at 405 nm (pNA release), 100 uM peptide with trypsin only ((AcAAF)K-pNA): a minimal absorbance increase (0.016±0.002 AU) was observed when 100 µM peptide was incubated with trypsin only | absorbance increase at 405 nm (pNA release) with trypsin only ((AcDEVD)K-pNA): In the presence of trypsin or caspase 3 only, no absorbance increase was observed as expected

Caspase 3
pNA release on caspase 3 digestion (AcDEVD-pNA): both substrates are digested efficiently by caspase 3 | pNA release with trypsin and caspase 3 ((AcDVED)K-pNA): no pNA release occurred when (AcDVED)K-pNA (SEQ ID NO: 2) was incubated with trypsin and caspase 3 | absorbance increase at 405 nm (pNA release), 125 uM substrate first with caspase-3 then with trypsin, over 60 minutes ((AcDEVD)K-pNA): 0.1±0.006 AU | pNA release relative to the commercial substrate AcDEVD-pNA ((AcDEVD)K-pNA): pNA release from our substrate corresponded to 83% of the release from the commercial substrate

Chymotrypsin
pNA release (absorbance at 405 nm), 2 mM peptide with trypsin and/or chymotrypsin, 90 minutes at 37 C (CAAK(F)-diamino-pNA): 55% of the theoretical pNA was released after 90 minutes of incubation | absorbance increase at 405 nm (pNA release), 50 uM substrate with chymotrypsin and trypsin, after five hours ((AcAAF)K-pNA): 0.039±0.003 AU | absorbance increase at 405 nm (pNA release), 100 uM substrate with chymotrypsin and trypsin ((AcAAF)K-pNA): 0.070±0.002 AU | absorbance increase at 405 nm (pNA release), 200 uM substrate with chymotrypsin and trypsin ((AcAAF)K-pNA): 0.147±0.002 AU

B1: Papain (protein)
chain: IPEYVDWRQKGAVTPVKNQGSCGSCWAFSAVVTIEGIIKIRTGNLNEYSEQELLDCDRRSYGCNGGYPWSALQLVAQYGIHYRNTYPYEGVQRYCRSREKGPYAAKTDGVRQVQPYNEGALLYSIANQPVSVVLEAAGKDFQLYRGGIFVGPCGNKVDHAVAAVGYGPNYILIKNSWGTGWGENGYIRIKRGTGNSYGVCGLYTSSFYPVKN
pNA release (absorbance at 405 nm) with papain and trypsin ((AcFG)K-pNA [2]): In the presence of papain and trypsin, pNA release from the substrate was observed to be substrate dependent
